In patent publication US20260226120A1 (University of Washington, published 2026):
Values joined by “and” are separate entries in the source; they are usually repeats but may differ in a detail not shown here. Equal values may be shown once.

What follows are binders tested against HLA-DQ7 (MHC class II) on autologous antigen presenting cells (BLCL) of patient 5 (human) (assay: cell-based or functional assay).

| Binder | interferon gamma ELISpot with expanded patient 5 T cells |
| --- | --- |
| WSDGLALNAL [native dystrophin exon-6 P17 HLA-DQ7 epitope peptide (163-WSDGLALNAL-172)] | ~75 spot forming units/10,000 cells and ~3 fold above background |
| WSNGLGLDAL [P17 redesign Des-1 peptide (163-WSNGLGLDAL-172)] | ~25 spot forming units/10,000 cells |
| WSDGTGLNAL [P17 redesign Des-2 peptide (163-WSDGTGLNAL-172)] | ~25 spot forming units/10,000 cells |
| LSDGTGLNAL [P17 redesign Des-3 peptide (163-LSDGTGLNAL-172)] | ~25 spot forming units/10,000 cells |
